Earlier results in paper PMC2446434.
pKd: −log10 of the molar value.

Target: CD200 (Mus musculus) (UniProt O54901)
Experiment: SPR

UniProt O54901, sequence (O54901 31-232): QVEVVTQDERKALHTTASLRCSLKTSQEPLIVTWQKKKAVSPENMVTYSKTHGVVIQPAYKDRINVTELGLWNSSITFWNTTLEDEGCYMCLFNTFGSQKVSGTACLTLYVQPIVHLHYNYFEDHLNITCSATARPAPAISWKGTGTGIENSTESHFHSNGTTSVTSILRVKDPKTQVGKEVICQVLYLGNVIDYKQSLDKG

pKd: 5.40
Substance: CD200R (from UniProt Q9ES57)
